Target: the molecule itself
Test: SELDI mass spectrometry of the purified protein alone, non-reduced sample (self-association)
Method: Recombinantly expressed proteins were analyzed by SDS-PAGE, anti-myc western blot, MALDI-MS, and SEC HPLC. In addition, O-linked glycosylation was analyzed by first treating the proteins with O-glycosidase with and without sialidase. The released O-glycans were labeled with anthranilic acid and analyzed by HPLC. The truncated CNGH0010.2 protein containing exons 1-5, 8, 9, 12, and 13 (SEQ ID NO:41) is predicted to be 37.5 kDa. […] In addition, it appears as if the molecule has a propensity to multimerize, as non-reduced analysis by SDS-PAGE, SELDI-MS (FIG. 5), and SEC-HPLC (FIG. 6), all indicate that dimeric and trimeric forms of the truncated CNGH0010.2 molecule exist in solution.

B1: truncated CNGH0010.2 protein containing exons 1-5, 8, 9, 12, and 13 (other)
chain: GPLQSGEESTGTNIGEALGHGLGDALSEGVGKAIGKEAGGAAGSKVSEALGQGTREAVGTGVRQVPGFGAADALGNRVGEAAHALGNTGHEIGRQAEDVIRHGADAVRGSWQGVPGHNGAWETSGGHGIFGSQGGLGGQGQGNPGGLGTPWVHGYPGNSAGSFGMNPQGAPWGQGGNGGPPNFGTNTQGAVAQPGYGSVRASNQNEGCTNPPPSGSGGGSSNSGGGSGSQSGSSGSGSNGDNNNGSSSGGSSSGSSSGGSSGGSSGGSSGNSGGSRGDSGSESSWGSSTGSSSGNHGGSGGGDGHKPGCEKPGNEARGSGESGIQGQGSSWGSGGGDAVGGVNTVNSETS
modifications: O-linked oligosaccharides (sites not given)
notes: The signal peptide (probably residues 1-21, same exon 1) is cleaved in the secreted protein; also called CNGH0010 (exons 1-13); His tagged CNGH0010.2 fusion protein; not shown: C-terminal hexa-His (myc-His vector) tag
- binding result: binds

Reference: patent US20080044422A1 (Janssen / Centocor, published 2008)
